Source: patent US20130011378A1, “Stable formulations of a hyaluronan-degrading enzyme” (priority 2011, published 2013)

How the values were obtained:
[1] = Appearance (visual analysis, illuminator method); format: physicochemical
Experimental: Appearance of the insulin/rHuPH20 formulations was determined by qualitative visual analysis of the insulin/rHuPH20 solution in a type I glass vial. The evaluation of the coloration and clarity of the solution was determined by comparison to that of USP (or equivalent) sterile water for irrigation (SWFI). The aqueous solution was determined to be clear if its clarity was the same as that of the SWFI. The aqueous solution was determined to be colorless if it had the appearance of the SWFI. Vials were tested at room temperature and care was taken not to cause unnecessary turbulence and/or air bubbles in the solutions while swirling and/or inverting. If necessary, vials were wiped with non-shedding or lint-free wipes and 70% ethanol prior to testing. The procedure was as follows: A directional light source with a 150 W or greater lamp was turned on. The samples were prepared in a hood. Samples to be tested were gently inverted to ensure homogeneity prior to transferring >0.5 mL using aseptic technique to a Type 1 glass vial for testing. A SWFI sample was prepared in the same way. […] Color, clarity and the presence and extent of any visible particles and/or foreign matter were recorded. […]
In this method, the degree of clarity and coloration of liquids were evaluated to ensure (visually) product quality against the applicable appearance specifications. […]

[2] = RP-HPLC: insulin percent purity; format: physicochemical; conditions: for Percent of insulin main peak: 2-8° C.
Experimental: For insulin, 20 μL was injected for each HPLC run.
The data were processed using Design-Expert® 7.0 (StatEase) and the “historical data” feature. Insulin percent purity was expressed as the percent of main insulin versus all insulin species.

[3] = cited from earlier work

Substance: regular insulin: mature human insulin, SEQ ID NOS: 103 and 104
- time tested without precipitates ([1]; NaCl 80 mM or less, pH 7.6): greater than 15 months
- time to form precipitates ([1]; NaCl greater than 80 mM, pH 7.0): ≤ 1 week
- Percent of insulin main peak ([2]; 50 mM NaCl, pH 7.0, 0 months): 97.64%
- Percent of insulin main peak ([2]; 50 mM NaCl, pH 7.0, 0.25 months): 97.59%
- Percent of insulin main peak ([2]; 50 mM NaCl, pH 7.0, 0.5 months): 97.50%
- Percent of insulin main peak ([2]; 50 mM NaCl, pH 7.0, 1 month): 97.44%
- Percent of insulin main peak ([2]; 50 mM NaCl, pH 7.0, 3 months): 97.24%
- Percent of insulin main peak ([2]; 50 mM NaCl, pH 7.0, 5 months): 97.73%
- Percent of insulin main peak ([2]; 50 mM NaCl, pH 7.0, 9 months): 97.20%
- Percent of insulin main peak ([2]; 50 mM NaCl, pH 7.2, 0 months): 97.64%
- Percent of insulin main peak ([2]; 50 mM NaCl, pH 7.2, 0.25 months): 97.59%
- Percent of insulin main peak ([2]; 50 mM NaCl, pH 7.2, 0.5 months): 97.56%
- Percent of insulin main peak ([2]; 50 mM NaCl, pH 7.2, 1 month): 97.46%
- Percent of insulin main peak ([2]; 50 mM NaCl, pH 7.2, 3 months): 97.47%
- Percent of insulin main peak ([2]; 50 mM NaCl, pH 7.2, 5 months): 97.75%
- Percent of insulin main peak ([2]; 50 mM NaCl, pH 7.2, 9 months): 97.27%
- Percent of insulin main peak ([2]; 50 mM NaCl, pH 7.4, 0 months): 97.58%
- Percent of insulin main peak ([2]; 50 mM NaCl, pH 7.4, 0.25 months): 97.54%
- Percent of insulin main peak ([2]; 50 mM NaCl, pH 7.4, 0.5 months): 97.48%
- Percent of insulin main peak ([2]; 50 mM NaCl, pH 7.4, 1 month): 97.47%
- Percent of insulin main peak ([2]; 50 mM NaCl, pH 7.4, 3 months): 97.45%
- Percent of insulin main peak ([2]; 50 mM NaCl, pH 7.4, 5 months): 97.74%
- Percent of insulin main peak ([2]; 50 mM NaCl, pH 7.4, 9 months): 97.27%
- Percent of insulin main peak ([2]; 50 mM NaCl, pH 7.6, 0 months): 97.65%
- Percent of insulin main peak ([2]; 50 mM NaCl, pH 7.6, 0.25 months): 97.58%
- Percent of insulin main peak ([2]; 50 mM NaCl, pH 7.6, 0.5 months): 97.33%
- Percent of insulin main peak ([2]; 50 mM NaCl, pH 7.6, 1 month): 97.44%
- Percent of insulin main peak ([2]; 50 mM NaCl, pH 7.6, 3 months): 97.35%
- Percent of insulin main peak ([2]; 50 mM NaCl, pH 7.6, 5 months): 97.66%
- Percent of insulin main peak ([2]; 50 mM NaCl, pH 7.6, 9 months): 97.34%
- Percent of insulin main peak ([2]; 80 mM NaCl, pH 7.0, 0 months): 97.65%
- Percent of insulin main peak ([2]; 80 mM NaCl, pH 7.0, 0.25 months): 97.50%
- Percent of insulin main peak ([2]; 80 mM NaCl, pH 7.0, 0.5 months): 97.30%
- Percent of insulin main peak ([2]; 80 mM NaCl, pH 7.0, 1 month): 97.20%
- Percent of insulin main peak ([2]; 80 mM NaCl, pH 7.0, 5 months): 97.81%
- Percent of insulin main peak ([2]; 80 mM NaCl, pH 7.0, 9 months): 96.18%
- Percent of insulin main peak ([2]; 80 mM NaCl, pH 7.2, 0 months): 97.57%
- Percent of insulin main peak ([2]; 80 mM NaCl, pH 7.2, 0.25 months): 97.59%
- Percent of insulin main peak ([2]; 80 mM NaCl, pH 7.2, 0.5 months): 97.30%
- Percent of insulin main peak ([2]; 80 mM NaCl, pH 7.2, 1 month): 97.45%
- Percent of insulin main peak ([2]; 80 mM NaCl, pH 7.2, 3 months): 97.34%
- Percent of insulin main peak ([2]; 80 mM NaCl, pH 7.2, 5 months): 97.64%
- Percent of insulin main peak ([2]; 80 mM NaCl, pH 7.4, 0 months): 97.56%
- Percent of insulin main peak ([2]; 80 mM NaCl, pH 7.4, 0.25 months): 97.61%
- Percent of insulin main peak ([2]; 80 mM NaCl, pH 7.4, 0.5 months): 97.51%
- Percent of insulin main peak ([2]; 80 mM NaCl, pH 7.4, 1 month): 97.43%
- Percent of insulin main peak ([2]; 80 mM NaCl, pH 7.4, 3 months): 97.43%
- Percent of insulin main peak ([2]; 80 mM NaCl, pH 7.4, 5 months): 97.75%
- Percent of insulin main peak ([2]; 80 mM NaCl, pH 7.4, 9 months): 97.29%
- Percent of insulin main peak ([2]; 80 mM NaCl, pH 7.6, 0 months): 97.63%
- Percent of insulin main peak ([2]; 80 mM NaCl, pH 7.6, 0.25 months): 97.62%
- Percent of insulin main peak ([2]; 80 mM NaCl, pH 7.6, 0.5 months): 97.52%
- Percent of insulin main peak ([2]; 80 mM NaCl, pH 7.6, 1 month): 97.37%
- Percent of insulin main peak ([2]; 80 mM NaCl, pH 7.6, 3 months): 97.64%
- Percent of insulin main peak ([2]; 80 mM NaCl, pH 7.6, 5 months): 97.67%
- Percent of insulin main peak ([2]; 80 mM NaCl, pH 7.6, 9 months): 97.31%
- Percent of insulin main peak ([2]; 110 mM NaCl, pH 7.0, 0 months): 97.64%
- Percent of insulin main peak ([2]; 110 mM NaCl, pH 7.0, 0.25 months): 97.31%
- Percent of insulin main peak ([2]; 110 mM NaCl, pH 7.0, 0.5 months): 97.57%
- Percent of insulin main peak ([2]; 110 mM NaCl, pH 7.0, 1 month): 96.64%
- Percent of insulin main peak ([2]; 110 mM NaCl, pH 7.0, 3 months): 96.10%
- Percent of insulin main peak ([2]; 110 mM NaCl, pH 7.0, 5 months): 97.79%
- Percent of insulin main peak ([2]; 110 mM NaCl, pH 7.2, 0 months): 97.62%
- Percent of insulin main peak ([2]; 110 mM NaCl, pH 7.2, 0.25 months): 97.46%
- Percent of insulin main peak ([2]; 110 mM NaCl, pH 7.2, 0.5 months): 97.35%
- Percent of insulin main peak ([2]; 110 mM NaCl, pH 7.2, 3 months): 97.49%
- Percent of insulin main peak ([2]; 110 mM NaCl, pH 7.2, 5 months): 97.61%
- Percent of insulin main peak ([2]; 110 mM NaCl, pH 7.2, 9 months): 95.91%
- Percent of insulin main peak ([2]; 110 mM NaCl, pH 7.4, 0 months): 97.65%
- Percent of insulin main peak ([2]; 110 mM NaCl, pH 7.4, 0.25 months): 97.58%
- Percent of insulin main peak ([2]; 110 mM NaCl, pH 7.4, 0.5 months): 97.39%
- Percent of insulin main peak ([2]; 110 mM NaCl, pH 7.4, 1 month): 97.36%
- Percent of insulin main peak ([2]; 110 mM NaCl, pH 7.4, 3 months): 97.36%
- Percent of insulin main peak ([2]; 110 mM NaCl, pH 7.4, 5 months): 97.79%
- Percent of insulin main peak ([2]; 110 mM NaCl, pH 7.4, 9 months): 96.91%
- Percent of insulin main peak ([2]; 110 mM NaCl, pH 7.6, 0 months): 97.58%
- Percent of insulin main peak ([2]; 110 mM NaCl, pH 7.6, 0.25 months): 97.57%
- Percent of insulin main peak ([2]; 110 mM NaCl, pH 7.6, 0.5 months): 97.60%
- Percent of insulin main peak ([2]; 110 mM NaCl, pH 7.6, 1 month): 97.52%
- Percent of insulin main peak ([2]; 110 mM NaCl, pH 7.6, 3 months): 97.42%
- Percent of insulin main peak ([2]; 110 mM NaCl, pH 7.6, 5 months): 97.61%
- Percent of insulin main peak ([2]; 110 mM NaCl, pH 7.6, 9 months): 97.31%
- Percent of insulin main peak ([2]; 140 mM NaCl, pH 7.0, 0 months): 97.65%
- Percent of insulin main peak ([2]; 140 mM NaCl, pH 7.0, 0.25 months): 97.15%
- Percent of insulin main peak ([2]; 140 mM NaCl, pH 7.0, 1 month): 96.39%
- Percent of insulin main peak ([2]; 140 mM NaCl, pH 7.0, 3 months): 96.16%
- Percent of insulin main peak ([2]; 140 mM NaCl, pH 7.0, 9 months): 95.17%
- Percent of insulin main peak ([2]; 140 mM NaCl, pH 7.2, 0 months): 97.56%
- Percent of insulin main peak ([2]; 140 mM NaCl, pH 7.2, 0.25 months): 97.37%
- Percent of insulin main peak ([2]; 140 mM NaCl, pH 7.2, 1 month): 96.62%
- Percent of insulin main peak ([2]; 140 mM NaCl, pH 7.2, 3 months): 96.60%
- Percent of insulin main peak ([2]; 140 mM NaCl, pH 7.2, 9 months): 95.49%
- Percent of insulin main peak ([2]; 140 mM NaCl, pH 7.4, 0 months): 97.64%
- Percent of insulin main peak ([2]; 140 mM NaCl, pH 7.4, 0.25 months): 97.57%
- Percent of insulin main peak ([2]; 140 mM NaCl, pH 7.4, 0.5 months): 97.33%
- Percent of insulin main peak ([2]; 140 mM NaCl, pH 7.4, 1 month): 97.23%
- Percent of insulin main peak ([2]; 140 mM NaCl, pH 7.4, 3 months): 97.38%
- Percent of insulin main peak ([2]; 140 mM NaCl, pH 7.4, 5 months): 97.73%
- Percent of insulin main peak ([2]; 140 mM NaCl, pH 7.4, 9 months): 96.10%
- Percent of insulin main peak ([2]; 140 mM NaCl, pH 7.6, 0 months): 97.64%
- Percent of insulin main peak ([2]; 140 mM NaCl, pH 7.6, 0.25 months): 97.61%
- Percent of insulin main peak ([2]; 140 mM NaCl, pH 7.6, 0.5 months): 97.41%
- Percent of insulin main peak ([2]; 140 mM NaCl, pH 7.6, 1 month): 97.51%
- Percent of insulin main peak ([2]; 140 mM NaCl, pH 7.6, 3 months): 97.35%
- Percent of insulin main peak ([2]; 140 mM NaCl, pH 7.6, 5 months): 97.56%
- Percent of insulin main peak ([2]; 140 mM NaCl, pH 7.6, 9 months): 97.07%
- insulin main peak percentage ([2]; long term storage at 2-8° C., […] m-cresol, 0.2% phenol): about 97%
- plasma half-life ([3]; following subcutaneous administration): about 1.5 hours
- Onset ([3]; in vivo): 30 min
- Peak ([3]; in vivo): 1 to 3 h
